Laboratory results: publication PMC9947773, “Modeling C3 glomerulopathies: C3 convertase regulation on an extracellular matrix surface” (Frontiers in Immunology, 2022)

Molecular target: T1, C3b (human, UniProt P01024 23-667; P01024 749-1663)
T1 construct: complement C3, human; beta chain of C3b; alpha' chain of C3b (alpha chain without C3a); Coated on MaxGel (ECM) in microtiter wells at 130 ug/ml; also called purified C3b; source: bought: Complement Technology Inc., purified
Assay: C3 convertase formation assay (C3CFA), elution and western blot for Bb; C3b coated on MaxGel; FB + FD with Factor H or a Factor H variant as reactant (22.5 ug/ml), 10 min at 37°C; washed x3; eluted
Settings: both partners purified

T1 sequence (P01024 23-667, chain 1 of 2): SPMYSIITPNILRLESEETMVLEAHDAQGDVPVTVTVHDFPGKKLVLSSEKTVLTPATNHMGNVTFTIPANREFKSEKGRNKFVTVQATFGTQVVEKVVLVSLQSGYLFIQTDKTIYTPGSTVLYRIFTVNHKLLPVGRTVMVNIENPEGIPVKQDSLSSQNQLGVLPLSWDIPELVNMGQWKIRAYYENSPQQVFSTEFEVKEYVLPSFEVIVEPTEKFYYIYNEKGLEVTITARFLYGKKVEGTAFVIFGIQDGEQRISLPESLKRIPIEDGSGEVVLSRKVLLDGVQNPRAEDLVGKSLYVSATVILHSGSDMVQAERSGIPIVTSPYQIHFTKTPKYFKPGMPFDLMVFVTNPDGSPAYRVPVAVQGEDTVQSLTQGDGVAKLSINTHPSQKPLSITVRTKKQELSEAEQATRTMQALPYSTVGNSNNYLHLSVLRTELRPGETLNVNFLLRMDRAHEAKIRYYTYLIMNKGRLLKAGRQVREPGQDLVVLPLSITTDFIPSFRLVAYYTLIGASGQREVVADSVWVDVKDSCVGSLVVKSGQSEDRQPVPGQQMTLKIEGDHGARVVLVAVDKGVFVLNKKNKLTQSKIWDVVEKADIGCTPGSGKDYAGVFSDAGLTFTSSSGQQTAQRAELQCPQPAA
T1 sequence (P01024 749-1663, chain 2 of 2): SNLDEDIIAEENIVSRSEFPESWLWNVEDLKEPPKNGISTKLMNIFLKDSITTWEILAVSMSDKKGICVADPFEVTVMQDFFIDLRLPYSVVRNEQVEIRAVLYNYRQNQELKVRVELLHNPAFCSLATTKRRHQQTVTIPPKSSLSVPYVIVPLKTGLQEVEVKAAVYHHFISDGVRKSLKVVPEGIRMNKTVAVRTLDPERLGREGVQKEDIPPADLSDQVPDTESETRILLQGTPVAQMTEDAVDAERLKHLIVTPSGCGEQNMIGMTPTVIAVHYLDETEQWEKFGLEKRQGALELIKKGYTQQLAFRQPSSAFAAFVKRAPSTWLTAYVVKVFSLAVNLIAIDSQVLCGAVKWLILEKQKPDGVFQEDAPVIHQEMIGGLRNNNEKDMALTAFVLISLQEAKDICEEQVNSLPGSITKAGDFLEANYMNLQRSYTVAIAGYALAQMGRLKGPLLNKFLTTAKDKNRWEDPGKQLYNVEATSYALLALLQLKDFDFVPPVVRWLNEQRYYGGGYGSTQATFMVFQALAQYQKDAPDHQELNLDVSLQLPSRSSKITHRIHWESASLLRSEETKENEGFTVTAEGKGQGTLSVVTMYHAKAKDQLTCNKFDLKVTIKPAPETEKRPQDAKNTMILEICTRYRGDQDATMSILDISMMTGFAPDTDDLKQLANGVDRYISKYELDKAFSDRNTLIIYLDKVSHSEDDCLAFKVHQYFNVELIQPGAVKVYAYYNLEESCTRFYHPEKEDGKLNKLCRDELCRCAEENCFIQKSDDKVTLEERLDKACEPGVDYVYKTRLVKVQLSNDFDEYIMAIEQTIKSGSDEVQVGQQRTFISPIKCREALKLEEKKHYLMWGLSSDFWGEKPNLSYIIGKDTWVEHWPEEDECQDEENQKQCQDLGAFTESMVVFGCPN

B1: Factor H (natural protein, human, UniProt P08603 19-1231, looked up)
chain: EDCNELPPRRNTEILTGSWSDQTYPEGTQAIYKCRPGYRSLGNVIMVCRKGEWVALNPLRKCQKRPCGHPGDTPFGTFTLTGGNVFEYGVKAVYTCNEGYQLLGEINYRECDTDGWTNDIPICEVVKCLPVTAPENGKIVSSAMEPDREYHFGQAVRFVCNSGYKIEGDEEMHCSDDGFWSKEKPKCVEISCKSPDVINGSPISQKIIYKENERFQYKCNMGYEYSERGDAVCTESGWRPLPSCEEKSCDNPYIPNGDYSPLRIKHRTGDEITYQCRNGFYPATRGNTAKCTSTGWIPAPRCTLKPCDYPDIKHGGLYHENMRRPYFPVAVGKYYSYYCDEHFETPSGSYWDHIHCTQDGWSPAVPCLRKCYFPYLENGYNQNYGRKFVQGKSIDVACHPGYALPKAQTTVTCMENGWSPTPRCIRVKTCSKSSIDIENGFISESQYTYALKEKAKYQCKLGYVTADGETSGSITCGKDGWSAQPTCIKSCDIPVFMNARTKNDFTWFKLNDTLDYECHDGYESNTGSTTGSIVCGYNGWSDLPICYERECELPKIDVHLVPDRKKDQYKVGEVLKFSCKPGFTIVGPNSVQCYHFGLSPDLPICKEQVQSCGPPPELLNGNVKEKTKEEYGHSEVVEYYCNPRFLMKGPNKIQCVDGEWTTLPVCIVEESTCGDIPELEHGWAQLSSPPYYYGDSVEFNCSESFTMIGHRSITCIHGVWTQLPQCVAIDKLKKCKSSNLIILEEHLKNKKEFDHNSNIRYRCRGKEGWIHTVCINGRWDPEVNCSMAQIQLCPPPPQIPNSHNMTTTLNYRDGEKVSVLCQENYLIQEGEEITCKDGRWQSIPLCVEKIPCSQPPQIEHGTINSSRSSQESYAHGTKLSYTCEGGFRISEENETTCYMGKWSSPPQCEGLPCKSPPEISHGVVAHMSDSYQYGEEVTYKCFEGFGIDGPAIAKCLGEKWSHPPSCIKTDCLSLPSFENAIPMGEKKDVYKAGEQVTYTCATYYKMDGASNVTCINSRWTGRPTCRDTSCVNPPTVQNAYIVSRQMSKYPSGERVRYQCRSPYEMFGDEEVMCLNGNWTEPPQCKDSTGKCGPPPPIDNGDITSFPLSVYAPASSVEYQCQNLYQLEGNKRITCRNGQWSEPPKCLHPCVISREIMENYNIALRWTAKQKLYSRTGESVEFVCKRGYRLSSRSHTLRTTCWDGKLEYPTCAKR
notes: complement factor H, human; Used at 22.5 ug/ml; also called FH; WT FH; source: bought: Complement Technology Inc
  binding result: binds
